Patent US20130189787A1 (OPX BIOTECHNOLOGIES ,INC., priority 2008, published 2013)

Legend:
E. coli = details: known to be toxic; cited from earlier work
[1] = test system: gram negative and gram positive bacteria; details: wide range of gram negative and gram positive bacteria; concentrations as low as; cited from earlier work
E. coli strain BW25113 = details: 20 g/L 3-HP, putrescine 0.1 g/L
Procedure: The control E. coli strain BW25113 and 22 of its derivatives, each derivative having a deletion of a respective one of 22 aldehyde dehydrogenases or related genes (predicted aldehyde dehydrogenases via homology, www.ecocyc.org) were cultured as described in methods in the Common Methods Section. […] These strains each contain a kanamycin marker in place of the deleted gene.
In addition, an Eppendorf external column heater is used and the data are collected using an SRI (Torrance, Calif.) analog-to-digital converter linked to a standard desk top computer. Data are analyzed using the SRI Peak Simple software. A Coregel 64H ion exclusion column (Transgenomic, Inc., San Jose, Calif.) is employed. The column resin is a sulfonated polystyrene divinyl benzene with a particle size of 10 μm and column dimensions are 300×7.8 mm The mobile phase consisted of sulfuric acid (Fisher Scientific, Pittsburgh, Pa. USA) diluted with deionized (18 MΩcm) water to a concentration of 0.02 N and vacuum filtered through a 0.2 μm nylon filter. The flow rate of the mobile phase is 0.6 mL/min. The UV detector is operated at a wavelength of 210 nm and the column is heated to 60° C.
The next day, 250 uL of the overnight cultures were inoculated into 25 mL of M9+kanamycin. […] All the intracellular and extracellular metabolites were analyzed by HPLC as described in the Common Methods Section, Subsection III.

[2] = Enzyme activity assays for dehydrogenase enzymes with 3-HP as a substrate (340 nm spectrophotometric); assay type: biochemical, E. coli; details: 1 mM 3-HP, 1 mM cofactor, 1 hour at room temperature, change in absorption at 340 nm; clarified lysates or purified enzymes
Procedure: Samples of these enzymes were isolated either as clarified lysates or as purified enzymes as described in the method reported above. As these dehydrogenases use NAD+, NADH, NADP+, NADPH or all of these molecules as cofactors for their reactions depending on reaction direction, all enzymes where tested with their known cofactors. For enzymes where the specific cofactors have not been determined or maybe unclear, all possible cofactors were evaluated.
(§1) A spectrophotometric assay was used to evaluate enzyme activity. […] Replicates of reactions were carried out to compare reactions in the presence or absence or 3-HP, and with and without enzyme. Enzymatic activities were confirmed by comparing the change in the 340 nm absorption values after 1 hour incubations to reactions performed in buffer containing 1 mM cofactor as a baseline. […] Furthermore, activity of the purified aldB enzyme was confirmed with its natural substrate (1 mM […]) as in FIG. 9B.
(§2) Reactions were carried out using one of two reaction buffers. AldA, AldB, LacZ, and Usg reactions were performed in a buffer consisting of 100 mM potassium phosphate buffer pH 7.4 with 50 mM sodium chloride. Likewise, puuC reactions were performed in a buffer consisting of 200 mM sodium bicarbonate pH 9.2 with 10 mM dithiothreitol and 30 micromolar ferrous sulphate. Where stated, all cofactors were used at 1 mM in the final reaction buffer. […] After one hour incubations at room temperature, the samples were diluted 1 to 20 in water and measured with a Beckmann DU530 spectrometer set at 340 nm.

[3] = Enzyme activity assay of purified aldB with its natural substrate; assay type: biochemical, E. coli; details: 1 mM acetate, FIG. 9B
Procedure: as §1, §2

## O=CCCO [3-HPA, 3-hydroxypropionaldehyde]
E. coli
  toxicity to E. coli: toxic
[1]
  concentration toxic to bacteria: ≥ 15 mM

## NCCCCN [putrescine]
E. coli strain BW25113; 20 hours, FIG. 7
  level of aldehyde in response to 3-HP: greater level
E. coli strain BW25113; puuC deletion strain, FIG. 8
  level of aldehyde in response to 3-HP in a strain lacking the puuC gene: elevated levels

B1: puuC: E. coli γ-glutamyl-γ-aminobutyraldehyde dehydrogenase, over-expressed (SEQ ID NO 038) (protein, listed as Escherichia coli)
chain: MNFHHLAYWQDKALSLAIENRLFINGEYTAAAENETFETVDPVTQAPLAKIARGKSVDIDRAMSAARGVFERGDWSLSSPAKRKAVLNKLADLMEAHAEELALLETLDTGKPIRHSLRDDIPGAARAIRWYAEAIDKVYGEVATTSSHELAMIVREPVGVIAAIVPWNFPLLLTCWKLGPALAAGNSVILKPSEKSPLSAIRLAGLAKEAGLPDGVLNVVTGFGHEAGQALSRHNDIDAIAFTGSTRTGKQLLKDAGDSNMKRVWLEAGGKSANIVFADCPDLQQAASATAAGIFYNQGQVCIAGTRLLLEESIADEFLALLKQQAQNWQPGHPLDPATTMGTLIDCAHADSVHSFIREGESKGQLLLDGRNAGLAAAIGPTIFVDVDPNASLSREEIFGPVLVVTRFTSEEQALQLANDSQYGLGAAVWTRDLSRAHRMSRRLKAGSVFVNNYNDGDMTVPFGGYKQSGNGRDKSLHALEKFTELKTIWISLEA
[2]
  enzymatic activity using 3-HP as a substrate: showed activity

B2: usg: E. coli aldehyde dehydrogenase not listed in Table 1 (SEQ ID NO: 121) (protein, listed as Escherichia coli)
chain: MSEGWNIAVLGATGAVGEALLETLAERQFPVGEIYALARNESAGEQLRFGGKTITVQDAAEFDWTQAQLAFFVAGKEATAAWVEEATNSGCLVIDSSGLFALEPDVPLVVPEVNPFVLTDYRNRNVIAVPDSLTSQLLAALKPLIDQGGLSRISVTSLISASAQGKKAVDALAGQSAKLLNGIPIDEEDFFGRQLAFNMLPLLPDSEGSVREERRIVDEVRKILQDEGLMISASVVQAPVFYGHAQMVNFEALRPLAAEEARDAFVQGEDIVLSEENEFPTQVGDASGTPHLSVGCVRNDYGMPEQVQFWSVADNVRFGGALMAVKIAEKLVQEYLY
[2]
  enzymatic activity using 3-HP as a substrate: showed activity

B3: aldB: E. coli acetaldehyde dehydrogenase, his-tagged, over-expressed (SEQ ID NO 024) (protein, listed as Escherichia coli)
chain: MTNNPPSAQIKPGEYGFPLKLKARYDNFIGGEWVAPADGEYYQNLTPVTGQLLCEVASSGKRDIDLALDAAHKVKDKWAHTSVQDRAAILFKIADRMEQNLELLATAETWDNGKPIRETSAADVPLAIDHFRYFASCIRAQEGGISEVDSETVAYHFHEPLGVVGQIIPWNFPLLMASWKMAPALAAGNCVVLKPARLTPLSVLLLMEIVGDLLPPGVVNVVNGAGGVIGEYLATSKRIAKVAFTGSTEVGQQIMQYATQNIIPVTLELGGKSPNIFFADVMDEEDAFFDKALEGFALFAFNQGEVCTCPSRALVQESIYERFMERAIRRVESIRSGNPLDSVTQMGAQVSHGQLETILNYIDIGKKEGADVLTGGRRKLLEGELKDGYYLEPTILFGQNNMRVFQEEIFGPVLAVTTFKTMEEALELANDTQYGLGAGVWSRNGNLAYKMGRGIQAGRVWTNCYHAYPAHAAFGGYKQSGIGRETHKMMLEHYQQTKCLLVSYSDKPLGLF
modifications: His tag
[2]
  enzymatic activity using 3-HP as a substrate: showed activity
[3]
  enzymatic activity with natural substrate: confirmed

B4: aldA: E. coli aldehyde dehydrogenase A, his-tagged, over-expressed (SEQ ID NO 023) (protein, listed as Escherichia coli)
chain: MSVPVQHPMYIDGQFVTWRGDAWIDVVNPATEAVISRIPDGQAEDARKAIDAAERAQPEWEALPAIERASWLRKISAGIRERASEISALIVEEGGKIQQLAEVEVAFTADYIDYMAEWARRYEGEIIQSDRPGENILLFKRALGVTTGILPWNFPFFLIARKMAPALLTGNTIVIKPSEFTPNNAIAFAKIVDEIGLPRGVFNLVLGRGETVGQELAGNPKVAMVSMTGSVSAGEKIMATAAKNITKVCLELGGKAPAIVMDDADLELAVKAIVDSRVINSGQVCNCAERVYVQKGIYDQFVNRLGEAMQAVQFGNPAERNDIAMGPLINAAALERVEQKVARAVEEGARVAFGGKAVEGKGYYYPPTLLLDVRQEMSIMHEETFGPVLPVVAFDTLEDAISMANDSDYGLTSSIYTQNLNVAMKAIKGLKFGETYINRENFEAMQGFHAGWRKSGIGGADGKHGLHEYLQTQVVYLQS
modifications: His tag
[2]
  enzymatic activity using 3-HP as a substrate: showed activity
